Assay results published in PMC4807222.
pKd: −log10 of the molar value.

Experiments:
[1] = biological target: V5-Myc, murine c-Myc mutant 20-AAAI (murine) (UniProt P01108); test: co-IP
[2] = biological target: V5-Myc, murine c-Myc mutant 20-PAAA (murine) (UniProt P01108); test: co-IP
[3] = biological target: V5-Myc, murine c-Myc mutant 20-PAAI (murine) (UniProt P01108); test: co-IP
[4] = biological target: c-Myc_(1–88) c-Myc-20-PYFY/AAAA-23 mutant (human) (UniProt P01106); test: SPR

Sequence of Flag-tagged Pin1 (co-immunoprecipitation) (Q13526 whole entry): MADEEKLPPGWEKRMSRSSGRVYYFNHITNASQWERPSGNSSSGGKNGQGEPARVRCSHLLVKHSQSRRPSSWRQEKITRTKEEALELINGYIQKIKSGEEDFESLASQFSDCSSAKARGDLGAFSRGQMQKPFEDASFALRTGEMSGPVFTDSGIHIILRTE
Sequence of full-length Pin1 (1–163) (Q13526 whole entry): as above
Sequence of V5-Myc, murine c-Myc mutant 20-PAAI (murine) (P01108 whole entry, change not shown): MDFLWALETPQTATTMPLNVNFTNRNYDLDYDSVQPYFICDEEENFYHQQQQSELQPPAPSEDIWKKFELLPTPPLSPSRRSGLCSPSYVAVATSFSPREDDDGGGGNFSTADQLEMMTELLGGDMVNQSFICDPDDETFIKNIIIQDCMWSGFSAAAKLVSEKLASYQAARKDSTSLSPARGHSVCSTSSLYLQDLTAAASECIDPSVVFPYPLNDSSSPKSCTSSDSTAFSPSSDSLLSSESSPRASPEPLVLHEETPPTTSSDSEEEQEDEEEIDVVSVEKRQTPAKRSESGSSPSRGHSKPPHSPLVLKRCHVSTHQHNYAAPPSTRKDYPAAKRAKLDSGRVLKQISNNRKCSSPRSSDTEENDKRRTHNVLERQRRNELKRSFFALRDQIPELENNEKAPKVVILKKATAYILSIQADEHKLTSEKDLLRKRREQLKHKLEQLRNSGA
Sequence of V5-Myc, murine c-Myc mutant 20-AAAI (murine) (P01108 whole entry, change not shown): as above
Sequence of V5-Myc, murine c-Myc mutant 20-PAAA (murine) (P01108 whole entry, change not shown): as above

| Substance | percent reduction of co-immunoprecipitated Pin1 against wild type [1] [%] | percent reduction of co-immunoprecipitated Pin1 against wild type [2] [%] | percent reduction of co-immunoprecipitated Pin1 against wild type [3] [%] | pKd [4] |
| --- | --- | --- | --- | --- |
| Flag-tagged Pin1 (co-immunoprecipitation) (from UniProt Q13526 1-163) (enzyme) | > 50 | > 50 | > 50 |  |
| full-length Pin1 (1–163) (from UniProt Q13526 1-163) (enzyme) |  |  |  | 4.82 |
